Reference: patent US20220160939A1, “SELF-ASSEMBLING PEPTIDES AS BRONCHIAL OBSTRUCTION AGENTS” (3-D MATRIX, LTD., priority 2014, published 2022)
Where no end group is shown, it is not given here.

How the values were obtained:
[1] = Appearance of 1.5% peptide solutions with various salts at room temperature; assay type: physicochemical; conditions: for Appearance: room temperature
Method: The effect of salt ionic strength level on the properties of peptide solutions was evaluated to identify optimized salt ionic strength levels for the peptides as described herein. Increasing the salt ionic strength level of PuraMatrix® (SEQ ID NO:1) and other peptides may generally improve its function and mechanical strength for various clinical applications. To adjust the salt ionic strength of the peptide solutions by way of example, various salt buffer solutions including NaCl, KCl, MgCl2, CaCl2 and DPBS (10×) were added to 2 mL of 1.5% peptide solutions.

[2] = Rheological properties of peptide solutions at adjusted salt ionic strength; assay type: physicochemical
Method: Based on the visual observation of the effect of salt ionic strength on the properties of the peptide solutions, the effect on the rheological properties of the peptide solutions after adjusting their ionic strength level with NaCl to 0.7 M (PuraMatrix® (SEQ ID NO:1)), 0.2 M (KLD12 (SEQ ID NO:3)) or 0.02 M (IEIK13 (SEQ ID NO:2)), which is closely below the critical ionic strength at which each peptide becomes cloudy, was evaluated. If the ionic strength levels with NaCl of peptide solutions are higher than 0.9 M (PuraMatrix® (SEQ ID NO:1)), 0.3 M (KLD12 (SEQ ID NO:3)) or 0.03 M (IEIK13 (SEQ ID NO:2)), the peptide solutions begin phase separation becoming cloudy and weak. The rheological property of PuraMatrix® (SEQ ID NO:1), KLD12 (SEQ ID NO:3) and IEIK13 (SEQ ID NO:2) solutions was higher after adjusting their ionic strength level with NaCl to 0.7 M (PuraMatrix® (SEQ ID NO:1)), 0.2 M (KLD12 (SEQ ID NO:3)) or 0.02 M (IEIK13 (SEQ ID NO:2)). The results are shown in FIG. 10 for KLD12 (SEQ ID NO:3) 1%, FIG. 11 for IEIK13 (SEQ ID NO:2) 1%, and FIG. 12 for PuraMatrix® (SEQ ID NO:1) 1%, respectively. Frequency sweep tests were performed from 1 rad/s to 10 rad/s at 1 Pa.
Based on the results of the effect on the rheological properties of the peptide solutions after adjusting their ionic strength level with NaCl to 0.7 M (PuraMatrix® (SEQ ID NO:1)), 0.2 M (KLD12 (SEQ ID NO:3)) or 0.02 M (IEIK13 (SEQ ID NO:2)), the effect on the rheological properties of the peptide solution at various salt ionic strengths was evaluated. […] The results are shown in FIG. 13 for PuraMatrix® (SEQ ID NO:1) 1% solutions and in FIG. 14 for IEIK13 (SEQ ID NO:2) 1% solutions. Frequency sweep tests were performed from 1 rad/sec to 10 rad/sec at 1 Pa and the storage modulus at 1 rad/sec was selected for data.
Based on the results of the effect on the rheological properties of the peptide solutions and hydrogels after adjusting their ionic strength levels with NaCl, the effect of various salts (KCl, MgCl2, and CaCl2) was also evaluated. The rheological property of PuraMatrix® (SEQ ID NO:1) solutions increases with ionic strength adjustment at 0.15 M of all the salts. Increases of the rheological property of PuraMatrix® (SEQ ID NO:1) solutions with various salts were not predominantly different. However, increases of the rheological property of PuraMatrix® (SEQ ID NO:1) solutions may vary depending on the salting out constant, K of each salt. Constant K is a constant in Cohen's equation: log S=B−KI, where S is solubility, B is idealized solubility, K is salting out constant, and I is ionic strength. With a higher value of constant K and ionic strength of salts, solubility of the peptide may decrease resulting in strong peptide self-assembly with increased hydrophobic effect and higher rheological properties of the peptide solution. The constant K of NaCl may be higher than the other salts. […] The results are shown in FIG. 17 for PuraMatrix® (SEQ ID NO:1) 1% solution before DMEM treatment, and in FIG. 18 for PuraMatrix® (SEQ ID NO:1) 1% hydrogels after DMEM treatment for 10 min Frequency sweep tests were performed from 1 rad/sec to 10 rad/sec at 1 Pa and the storage modulus at 1 rad/sec was selected for data.

Question: Which results are given for KLDLKLDLKLDL [KLD12]?
Answer: critical salt ionic strengths at which peptides become cloudy [1]: 0.3˜0.4 M; Appearance ([1]; CaCl2 0 M, ionic strength 0 M, conc. 1.5%): Clear, thick gel; Appearance ([1]; CaCl2 0.05 M, ionic strength 0.15 M, conc. 1.48%): Clear, thick, stiffer gel; Appearance ([1]; CaCl2 0.067 M, ionic strength 0.2 M, conc. 1.47%): Clear, thick, stiffer gel; Appearance ([1]; CaCl2 0.083 M, ionic strength 0.25 M, conc. 1.46%): Clear, thick, stiffer gel; Appearance ([1]; CaCl2 0.1 M, ionic strength 0.3 M, conc. 1.45%): Clear, thick, stiffer gel; Appearance ([1]; CaCl2 0.117 M, ionic strength 0.35 M, conc. 1.44%): Clear, thick, stiffer gel; Appearance ([1]; CaCl2 0.133 M, ionic strength 0.4 M, conc. 1.43%): Slightly cloudy, thick, stiffer gel; Appearance ([1]; CaCl2 0.15 M, ionic strength 0.45 M, conc. 1.43%): Slightly cloudy, brittle gel; Appearance ([1]; CaCl2 0.167 M, ionic strength 0.5 M, conc. 1.42%): Cloudy, phase-separated; Appearance ([1]; KCl 0 M, ionic strength 0 M, conc. 1.5%): Clear, thick gel; Appearance ([1]; KCl 0.05 M, ionic strength 0.5 M, conc. 1.48%): Clear, thick, stiffer gel; Appearance ([1]; KCl 0.1 M, ionic strength 0.1 M, conc. 1.45%): Clear, thick, stiffer gel; Appearance ([1]; KCl 0.15 M, ionic strength 0.15 M, conc. 1.43%): Clear, thick, stiffer gel; Appearance ([1]; KCl 0.2 M, ionic strength 0.2 M, conc. 1.4%): Clear, thick, stiffer gel; Appearance ([1]; KCl 0.25 M, ionic strength 0.25 M, conc. 1.38%): Clear, thick, stiffer gel; Appearance ([1]; KCl 0.3 M, ionic strength 0.3 M, conc. 1.35%): Slightly cloudy, thick, stiffer gel; Appearance ([1]; KCl 0.35 M, ionic strength 0.35 M, conc. 1.32%): Slightly cloudy, brittle gel; Appearance ([1]; KCl 0.4 M, ionic strength 0.4 M, conc. 1.3%): Cloudy, phase-separated; Appearance ([1]; MgCl2 0 M, ionic strength 0 M, conc. 1.5%): Clear, thick gel; Appearance ([1]; MgCl2 0.05 M, ionic strength 0.15 M, conc. 1.48%): Clear, thick, stiffer gel; Appearance ([1]; MgCl2 0.067 M, ionic strength 0.2 M, conc. 1.47%): Clear, thick, stiffer gel; Appearance ([1]; MgCl2 0.083 M, ionic strength 0.25 M, conc. 1.46%): Clear, thick, stiffer gel; Appearance ([1]; MgCl2 0.1 M, ionic strength 0.3 M, conc. 1.45%): Clear, thick, stiffer gel; Appearance ([1]; MgCl2 0.117 M, ionic strength 0.35 M, conc. 1.44%): Clear, thick, stiffer gel; Appearance ([1]; MgCl2 0.133 M, ionic strength 0.4 M, conc. 1.43%): Slightly cloudy, thick, stiffer gel; Appearance ([1]; MgCl2 0.15 M, ionic strength 0.45 M, conc. 1.43%): Slightly cloudy, brittle gel; Appearance ([1]; MgCl2 0.167 M, ionic strength 0.5 M, conc. 1.42%): Cloudy, phase-separated; Appearance ([1]; NaCl 0 M, ionic strength 0 M, conc. 1.5%): Clear, thick gel; Appearance ([1]; NaCl 0.05 M, ionic strength 0.5 M, conc. 1.48%): Clear, thick, stiffer gel; Appearance ([1]; NaCl 0.1 M, ionic strength 0.1 M, conc. 1.45%): Clear, thick, stiffer gel; Appearance ([1]; NaCl 0.15 M, ionic strength 0.15 M, conc. 1.43%): Clear, thick, stiffer gel; Appearance ([1]; NaCl 0.2 M, ionic strength 0.2 M, conc. 1.4%): Clear, thick, stiffer gel; Appearance ([1]; NaCl 0.25 M, ionic strength 0.25 M, conc. 1.38%): Clear, thick, stiffer gel; Appearance ([1]; NaCl 0.3 M, ionic strength 0.3 M, conc. 1.35%): Slightly cloudy, thick, stiffer gel; Appearance ([1]; NaCl 0.35 M, ionic strength 0.35 M, conc. 1.32%): Slightly cloudy, brittle gel; Appearance ([1]; NaCl 0.4 M, ionic strength 0.4 M, conc. 1.3%): Cloudy, phase-separated; salt ionic strength increase that did not change the clear color, while apparent stiffness increased ([1]; depending on different salts, 1.5% peptide solutions): 0.25˜0.35 M; ionic strength level with NaCl above which solutions begin phase separation becoming cloudy and weak ([2]; NaCl): > 0.3 M; rheological property after adjusting ionic strength level with NaCl ([2]; NaCl to 0.7 M (PuraMatrix), 0.2 M (KLD12) or 0.02 M (IEIK13), 1% solutions): higher
